Experimental data: publication PMC12721328, “DNA extrusion size determines pathway choice during CAG repeat expansion”

Biological target: MSH2 (MutSβ subunit);MSH3 (MutSβ subunit) (human;human, UniProt P43246;P20585 1-934;1-1137, |)
Experiment: SPR; 10 mM Mg2+; FAN1 SPR: 20 mM Tris-HCl pH 7.6, 70 mM NaCl, 10 mM CaCl2, 1 mM EDTA, 0.01% P-20, 1 mM DTT, 0.05 mg/ml BSA, 5°C; MutSβ SPR: 10 mM Tris-HCl pH 7.6, 150 mM NaCl, 10 mM MgCl2, 1 mM EDTA, 1 mM DTT, 0.005% P-20 (samples held at 10°C)
Conditions: protein: recombinant;recombinant, tags: ;, copies: 1;1, label: 5'-biotin on strand 1, 5'-digoxigenin on strand 2, blunt

B1: (CAG)1 extrusion mr78 (dsDNA)
DNA 1: CGAATTTCTAGACTCGAGATCAGCTGCTAGGTCGAGTCTAGAG
DNA 2: CTCTAGACTCGACCTAGCAGATCTCGAGTCTAGAAATTCG
Kd (central 3-nt extrusion in strand 1, 20 bp each side): 0.5 ± 0.1 nM

B2: (CAG)2 extrusion mr78 (dsDNA)
DNA 1: CGAATTTCTAGACTCGAGATCAGCAGCTGCTAGGTCGAGTCTAGAG
DNA 2: CTCTAGACTCGACCTAGCAGATCTCGAGTCTAGAAATTCG
Kd (central 6-nt extrusion in strand 1, 20 bp each side): 0.5 ± 0.16 nM

B3: (CAG)13 extrusion mr78 (dsDNA)
DNA 1: CGAATTTCTAGACTCGAGATCAGCAGCAGCAGCAGCAGCAGCAGCAGCAGCAGCAGCAGCTGCTAGGTCGAGTCTAGAG
DNA 2: CTCTAGACTCGACCTAGCAGATCTCGAGTCTAGAAATTCG
Kd (central 39-nt extrusion in strand 1, 20 bp each side): 4.2 ± 1.5 nM

B4: (CAG)3 extrusion mr78 (dsDNA)
DNA 1: CGAATTTCTAGACTCGAGATCAGCAGCAGCTGCTAGGTCGAGTCTAGAG
DNA 2: CTCTAGACTCGACCTAGCAGATCTCGAGTCTAGAAATTCG
Kd (central 9-nt extrusion in strand 1, 20 bp each side): 1.2 ± 0.4 nM
